# From article doi:10.1101/2023.06.15.545061
# Molecular target: biotinylated 10-mer C-terminal PBM peptide of DGKζ (human) (UniProt Q13574)
# Sequence (Q13574 whole entry, looked up, tested part not stated): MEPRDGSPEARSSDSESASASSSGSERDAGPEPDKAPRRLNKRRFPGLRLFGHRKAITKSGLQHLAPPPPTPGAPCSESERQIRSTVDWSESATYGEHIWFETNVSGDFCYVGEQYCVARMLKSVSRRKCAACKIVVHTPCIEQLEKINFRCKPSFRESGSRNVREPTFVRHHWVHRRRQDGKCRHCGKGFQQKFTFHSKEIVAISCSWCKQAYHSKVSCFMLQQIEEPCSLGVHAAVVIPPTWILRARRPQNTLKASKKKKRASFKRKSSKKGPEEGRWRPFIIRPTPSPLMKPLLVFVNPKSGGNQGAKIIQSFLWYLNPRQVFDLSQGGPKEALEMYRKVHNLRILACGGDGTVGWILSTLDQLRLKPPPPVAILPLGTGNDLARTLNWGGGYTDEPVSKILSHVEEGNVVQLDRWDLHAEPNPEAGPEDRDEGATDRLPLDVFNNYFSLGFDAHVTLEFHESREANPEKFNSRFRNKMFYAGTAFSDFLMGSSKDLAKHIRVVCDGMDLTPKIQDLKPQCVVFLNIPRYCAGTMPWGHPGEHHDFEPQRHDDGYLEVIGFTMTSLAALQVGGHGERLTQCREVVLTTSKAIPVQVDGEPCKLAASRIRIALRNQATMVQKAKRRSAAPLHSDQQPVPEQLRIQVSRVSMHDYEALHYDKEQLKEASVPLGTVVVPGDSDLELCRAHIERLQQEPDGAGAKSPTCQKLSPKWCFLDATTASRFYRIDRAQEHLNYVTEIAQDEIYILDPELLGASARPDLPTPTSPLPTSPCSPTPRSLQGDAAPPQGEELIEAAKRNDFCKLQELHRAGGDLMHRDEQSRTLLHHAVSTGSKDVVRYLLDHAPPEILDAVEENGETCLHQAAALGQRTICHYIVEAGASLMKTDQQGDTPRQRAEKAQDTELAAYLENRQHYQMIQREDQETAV
substance,measurement,value
SCRIB,Kd,24 µM
